Laboratory results taken from patent US20140140998.

Key:
[1] = test system: TβRI intracellular domain fragment (TβRI ICD), about 34 kDa
[2] = test system: TM-V129A/I130A TβRI mutant (HA-tagged, in HA-caTβRI)

TβRI intracellular domain fragment (TβRI ICD), about 34 kDa, sequence (chain, as listed by the source): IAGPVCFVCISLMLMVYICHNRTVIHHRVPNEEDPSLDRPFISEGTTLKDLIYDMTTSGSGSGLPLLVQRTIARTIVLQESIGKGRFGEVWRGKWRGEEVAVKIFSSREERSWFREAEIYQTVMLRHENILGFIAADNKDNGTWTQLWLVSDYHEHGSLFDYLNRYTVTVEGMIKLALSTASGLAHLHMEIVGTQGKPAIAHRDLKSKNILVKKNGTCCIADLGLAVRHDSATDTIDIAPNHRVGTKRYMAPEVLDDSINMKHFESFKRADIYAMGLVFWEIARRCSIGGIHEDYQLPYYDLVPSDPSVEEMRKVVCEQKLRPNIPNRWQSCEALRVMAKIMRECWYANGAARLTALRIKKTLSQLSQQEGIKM

Substance | acetylation of the TβRI ICD (immunoblot with anti-acetyl-lysine) [1] | production of TβRI ICD (immunoblot) [2]
p300, endogenous | acetylation of the TβRI ICD was verified using an antibody specific for acetyl-lysine | 
Presenilin 1 (PS1), endogenous |  | Production of TβRI ICD was observed only in the TGF-treated cells transfected with caTβRI construct
